“And” between values parts separate entries of the source, which are not always exact repeats. Equal entries are not always repeated. [ ]: non-standard residue; d: D form. Cha = N[C@@H](CC1CCCCC1)C(=O)O; Abu = CC[C@H](N)C(=O)O

The target of this test is T1, β-catenin (UniProt P35222 134-665, limits assumed, biotinylated in the SPR and plate assays).
T1 construct: also called beta catenin; biotinylated β-catenin
T1 sequence (looked up): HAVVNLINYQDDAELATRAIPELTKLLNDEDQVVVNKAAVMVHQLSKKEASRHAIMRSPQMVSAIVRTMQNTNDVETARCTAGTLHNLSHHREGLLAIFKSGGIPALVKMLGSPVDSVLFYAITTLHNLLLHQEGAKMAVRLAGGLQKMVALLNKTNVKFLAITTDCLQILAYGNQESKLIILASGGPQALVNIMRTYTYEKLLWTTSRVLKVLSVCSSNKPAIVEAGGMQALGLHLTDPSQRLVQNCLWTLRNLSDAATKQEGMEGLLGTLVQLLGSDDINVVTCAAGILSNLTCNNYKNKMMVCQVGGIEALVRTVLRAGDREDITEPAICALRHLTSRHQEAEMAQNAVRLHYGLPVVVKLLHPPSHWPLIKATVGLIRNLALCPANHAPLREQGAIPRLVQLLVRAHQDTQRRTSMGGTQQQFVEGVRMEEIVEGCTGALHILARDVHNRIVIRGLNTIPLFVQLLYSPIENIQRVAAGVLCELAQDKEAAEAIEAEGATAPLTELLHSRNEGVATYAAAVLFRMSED
As to the kind of experiment: competitive FP. An excerpt:
Fluorescence polarization (FP) is another method used to analyze protein-ligand interactions. This methodology measures the change in fluorescence light emitted by a labelled compound free vs. conjugated to another compound in solution. Upon binding of the fluorescent molecule to a complex, polarization increases because of limited rotation of the fluorescent tracer. Competitive FP is often utilized in drug screens as it is formatted for high throughput screens in a plate format. This immunoassay is performed by introducing a non-conjugated drug to compete for binding to the labelled competitor-ligand complex, leading to a reduction in polarization. […] Exemplary methodology is described in Example 13. Data were analyzed and plotted in Microsoft Excel (Microsoft, Redmond, WA).
Varying concentrations of β-catenin inhibitor candidate (SEQ ID NO: 404) were then added in a series of serial dilutions from 10 nM to 30 uM of inhibitor in different wells of the plate. The fluorescence polarization was read by Infinite M1000 (Tecan, Baldwin Park CA) at excitation wavelength of 470 nm and measured at emission wavelength of 520 nm. […] The experiments were performed three times and data were analyzed and plotted in Microsoft Excel (Microsoft, Redmond, WA).

B1: SEQ ID NO: 417 (peptide)
peptide: WAXKILDEHGQRVWG
HELM: PEPTIDE1{W.[meA].[Aib].K.I.L.D.E.H.[O=C([C@@H](N[*:1])C1CCCCC1)[*:2]].Q.R.V.W.G.[am]}$PEPTIDE1,PEPTIDE1,4:R3-8:R3$$$V2.0
SMILES: CC[C@H](C)[C@@H]1NC(=O)[C@@H](NC(=O)C(C)(C)NC(=O)[C@H](C)N(C)C(=O)[C@@H](N)Cc2c[nH]c3ccccc23)CCCCNC(=O)CC[C@@H](C(=O)N[C@@H](Cc2c[nH]cn2)C(=O)N[C@H](C(=O)N[C@@H](CCC(N)=O)C(=O)N[C@@H](CCCNC(=N)N)C(=O)N[C@H](C(=O)N[C@@H](Cc2c[nH]c3ccccc23)C(=O)NCC(N)=O)C(C)C)C2CCCCC2)NC(=O)[C@H](CC(=O)O)NC(=O)[C@H](CC(C)C)NC1=O
For the molecule B1, the dissociation constant (Kd) was ≤ 0.4 µM.

B2: SEQ ID NO: 424 (peptide)
peptide: WAQXILDEHGQRVWG
HELM: PEPTIDE1{[ac].W.[meA].Q.[Orn].I.L.D.E.H.[O=C([C@@H](N[*:1])C1CCCCC1)[*:2]].Q.R.V.W.G.[am]}$PEPTIDE1,PEPTIDE1,5:R3-9:R3$$$V2.0
SMILES: CC[C@H](C)[C@@H]1NC(=O)[C@@H](NC(=O)[C@H](CCC(N)=O)NC(=O)[C@H](C)N(C)C(=O)[C@H](Cc2c[nH]c3ccccc23)NC(C)=O)CCCNC(=O)CC[C@@H](C(=O)N[C@@H](Cc2c[nH]cn2)C(=O)N[C@H](C(=O)N[C@@H](CCC(N)=O)C(=O)N[C@@H](CCCNC(=N)N)C(=O)N[C@H](C(=O)N[C@@H](Cc2c[nH]c3ccccc23)C(=O)NCC(N)=O)C(C)C)C2CCCCC2)NC(=O)[C@H](CC(=O)O)NC(=O)[C@H](CC(C)C)NC1=O
As to B2, the Kd was ≤ 0.4 µM.

As for Ac-LISFWG-OH [SEQ ID NO: 238], the Kd was > 10 µM and ≤ 30 µM.

B3: SEQ ID NO: 423 (peptide)
peptide: WAQXILDEHGQRVWG
HELM: PEPTIDE1{W.[meA].Q.[Orn].I.L.D.E.H.[O=C([C@@H](N[*:1])C1CCCCC1)[*:2]].Q.R.V.W.G.[am]}$PEPTIDE1,PEPTIDE1,4:R3-8:R3$$$V2.0
SMILES: CC[C@H](C)[C@@H]1NC(=O)[C@@H](NC(=O)[C@H](CCC(N)=O)NC(=O)[C@H](C)N(C)C(=O)[C@@H](N)Cc2c[nH]c3ccccc23)CCCNC(=O)CC[C@@H](C(=O)N[C@@H](Cc2c[nH]cn2)C(=O)N[C@H](C(=O)N[C@@H](CCC(N)=O)C(=O)N[C@@H](CCCNC(=N)N)C(=O)N[C@H](C(=O)N[C@@H](Cc2c[nH]c3ccccc23)C(=O)NCC(N)=O)C(C)C)C2CCCCC2)NC(=O)[C@H](CC(=O)O)NC(=O)[C@H](CC(C)C)NC1=O
For B3, the Kd was > 0.4 µM and ≤ 1 µM.

For H-RKKRRQRRR[Peg2]KW[Cha]LI[Abu]AWD-OH [SEQ ID NO: 282/493], the Kd is ≤ 0.4 µM.

B4: SEQ ID NO: 233 (peptide)
peptide: DWFLICAWK
HELM: PEPTIDE1{D.W.F.L.I.C.A.W.K}$PEPTIDE1,PEPTIDE1,1:R3-9:R3$$$V2.0
SMILES: CC[C@H](C)[C@@H]1NC(=O)[C@H](CC(C)C)NC(=O)[C@H](Cc2ccccc2)NC(=O)[C@H](Cc2c[nH]c3ccccc23)NC(=O)[C@@H](N)CC(=O)NCCCC[C@@H](C(=O)O)NC(=O)[C@H](Cc2c[nH]c3ccccc23)NC(=O)[C@H](C)NC(=O)[C@H](CS)NC1=O
With B4, the Kd was ≤ 0.4 µM.

B5: SEQ ID NO: 246 (peptide)
peptide: XWFLIXAWD
HELM: PEPTIDE1{[O=C(CCCCCN[*:1])[*:2]].W.F.L.I.[Abu].A.W.D}$PEPTIDE1,PEPTIDE1,1:R1-9:R3$$$V2.0
SMILES: CC[C@@H]1NC(=O)[C@H]([C@@H](C)CC)NC(=O)[C@H](CC(C)C)NC(=O)[C@H](Cc2ccccc2)NC(=O)[C@H](Cc2c[nH]c3ccccc23)NC(=O)CCCCCNC(=O)C[C@@H](C(=O)O)NC(=O)[C@H](Cc2c[nH]c3ccccc23)NC(=O)[C@H](C)NC1=O
In the case of B5, the dissociation constant Kd was ≤ 0.4 µM.

B6: SEQ ID NO: 245 (peptide)
peptide: XWFLICAWD
HELM: PEPTIDE1{[O=C(CCCCCN[*:1])[*:2]].W.F.L.I.C.A.W.D}$PEPTIDE1,PEPTIDE1,1:R1-9:R3$$$V2.0
SMILES: CC[C@H](C)[C@@H]1NC(=O)[C@H](CC(C)C)NC(=O)[C@H](Cc2ccccc2)NC(=O)[C@H](Cc2c[nH]c3ccccc23)NC(=O)CCCCCNC(=O)C[C@@H](C(=O)O)NC(=O)[C@H](Cc2c[nH]c3ccccc23)NC(=O)[C@H](C)NC(=O)[C@H](CS)NC1=O
Regarding B6, the dissociation constant Kd was ≤ 0.4 µM.

B7: SEQ ID NO: 419 (peptide)
peptide: AWAQKILDEHGQRVWG
HELM: PEPTIDE1{[ac].[bAla].W.[meA].Q.K.I.L.D.E.H.[O=C([C@@H](N[*:1])C1CCCCC1)[*:2]].Q.R.V.W.G.[am]}$PEPTIDE1,PEPTIDE1,6:R3-10:R3$$$V2.0
SMILES: CC[C@H](C)[C@@H]1NC(=O)[C@@H](NC(=O)[C@H](CCC(N)=O)NC(=O)[C@H](C)N(C)C(=O)[C@H](Cc2c[nH]c3ccccc23)NC(=O)CCNC(C)=O)CCCCNC(=O)CC[C@@H](C(=O)N[C@@H](Cc2c[nH]cn2)C(=O)N[C@H](C(=O)N[C@@H](CCC(N)=O)C(=O)N[C@@H](CCCNC(=N)N)C(=O)N[C@H](C(=O)N[C@@H](Cc2c[nH]c3ccccc23)C(=O)NCC(N)=O)C(C)C)C2CCCCC2)NC(=O)[C@H](CC(=O)O)NC(=O)[C@H](CC(C)C)NC1=O
For B7, the equilibrium dissociation constant (Kd) is ≤ 0.4 µM.

B8: SEQ ID NO: 414 (peptide)
peptide: WAQKILDEHGXRVWG
HELM: PEPTIDE1{[ac].W.[meA].Q.K.I.L.D.E.H.[O=C([C@@H](N[*:1])C1CCCCC1)[*:2]].[Aib].R.V.W.G.[am]}$PEPTIDE1,PEPTIDE1,5:R3-9:R3$$$V2.0
SMILES: CC[C@H](C)[C@@H]1NC(=O)[C@@H](NC(=O)[C@H](CCC(N)=O)NC(=O)[C@H](C)N(C)C(=O)[C@H](Cc2c[nH]c3ccccc23)NC(C)=O)CCCCNC(=O)CC[C@@H](C(=O)N[C@@H](Cc2c[nH]cn2)C(=O)N[C@H](C(=O)NC(C)(C)C(=O)N[C@@H](CCCNC(=N)N)C(=O)N[C@H](C(=O)N[C@@H](Cc2c[nH]c3ccccc23)C(=O)NCC(N)=O)C(C)C)C2CCCCC2)NC(=O)[C@H](CC(=O)O)NC(=O)[C@H](CC(C)C)NC1=O
For B8, the dissociation constant Kd is ≤ 0.4 µM.

B9: SEQ ID NO: 425 (peptide)
peptide: WAQXILDEHGQRVWG
HELM: PEPTIDE1{[CCCCCCCCC(=O)[*:2]].W.[meA].Q.[Orn].I.L.D.E.H.[O=C([C@@H](N[*:1])C1CCCCC1)[*:2]].Q.R.V.W.G.[am]}$PEPTIDE1,PEPTIDE1,5:R3-9:R3$$$V2.0
SMILES: CCCCCCCCC(=O)N[C@@H](Cc1c[nH]c2ccccc12)C(=O)N(C)[C@@H](C)C(=O)N[C@@H](CCC(N)=O)C(=O)N[C@H]1CCCNC(=O)CC[C@@H](C(=O)N[C@@H](Cc2c[nH]cn2)C(=O)N[C@H](C(=O)N[C@@H](CCC(N)=O)C(=O)N[C@@H](CCCNC(=N)N)C(=O)N[C@H](C(=O)N[C@@H](Cc2c[nH]c3ccccc23)C(=O)NCC(N)=O)C(C)C)C2CCCCC2)NC(=O)[C@H](CC(=O)O)NC(=O)[C@H](CC(C)C)NC(=O)[C@H]([C@@H](C)CC)NC1=O
For the molecule B9, the Kd is ≤ 0.4 µM.

B10: SEQ ID NO: 230 (peptide)
peptide: MWKLIEFWG
HELM: PEPTIDE1{M.W.K.L.I.E.F.W.G}$PEPTIDE1,PEPTIDE1,3:R3-6:R3$$$V2.0
SMILES: CC[C@H](C)[C@@H]1NC(=O)[C@H](CC(C)C)NC(=O)[C@@H](NC(=O)[C@H](Cc2c[nH]c3ccccc23)NC(=O)[C@@H](N)CCSC)CCCCNC(=O)CC[C@@H](C(=O)N[C@@H](Cc2ccccc2)C(=O)N[C@@H](Cc2c[nH]c3ccccc23)C(=O)NCC(=O)O)NC1=O
Regarding B10, the Kd is ≤ 0.4 µM.

Turning to WPQSILDEHGQKVW (not fully specified; Ac-NH-WPQSILDE*H-Chg-QK*VW-NH2) [SEQ ID NO: 468], the dissociation constant (Kd) was ≤ 0.4 µM.

B11: SEQ ID NO: 244 (peptide)
peptide: KWFLIXAWD
HELM: PEPTIDE1{K.W.F.L.I.[Abu].A.W.D}$PEPTIDE1,PEPTIDE1,1:R3-9:R3$$$V2.0
SMILES: CC[C@@H]1NC(=O)[C@H]([C@@H](C)CC)NC(=O)[C@H](CC(C)C)NC(=O)[C@H](Cc2ccccc2)NC(=O)[C@H](Cc2c[nH]c3ccccc23)NC(=O)[C@@H](N)CCCCNC(=O)C[C@@H](C(=O)O)NC(=O)[C@H](Cc2c[nH]c3ccccc23)NC(=O)[C@H](C)NC1=O
For the molecule B11, the Kd was > 0.4 µM and ≤ 1 µM.

The values are drawn from patent US20260098059A1 (ENDOMET BIOSCIENCES, published 2026).
